From patent US8283162 (AbbVie / Abbott, dated 2012)
Bridges are numbered along the chain shown (N, C = ends). Where no end group is shown, it is not given here.

T1: Alexa-488 labeled PIVKAII Gla domain peptide (13-27) (disulfide 5-10; also: Alexa Fluor 488 label, site not given here)
T1 construct: also called Alexa488-PIVKAII peptide (13-27 cyc); Alexa488-PIVKA-II (13-27)
T1 peptide: LERECVEETCSYEEA

B1: Gla domain Protein C peptide (sequence 14) (peptide)
peptide: LERECIEEICDFEEA
notes: Synthetic 15-mer homologous to PIVKA-II 13-27, with plain Glu; also called PIVKAII Gla domain (13-27) analog
B2: Gla domain Factor VII peptide (sequence 13) (peptide)
peptide: LERECKEEQCSFEEA
notes: as for B1
B3: Gla domain Protein S peptide (sequence 15) (peptide)
peptide: LERECIEELCNKEEA
notes: as for B1
B4: monoclonal antibody 3C10 (antibody, V domains shown)
VH: EVQLVESGGDLVKPGGSLKLSCAASGFTFSSYGMSWVRQTPDKRLEWVATISRGGSSTYYPDSVKGRFTISRDNAKNNLYLQMSSLKSEDTAMYYCASLNYGNFFDYWGQGTTLTVSS
VL: DVVMTQTPLSLPVSLGDQASISCRSSQSLVHSNGNTYLHWYLQKPGQSPKLLIYKVSNRFSGVPDRFSGSGSGTDFTLKISRVEAEDLGVYFCSQNRHVPPTFGGGTKLEIKR
B5: Gla domain Factor X peptide (sequence 12) (peptide)
peptide: LERECMEETCSYEEA
notes: as for B1
B6: Gla domain Factor IX peptide (sequence 11) (peptide)
peptide: LERECMEEKCSFEEA
notes: as for B1
B7: Gla domain Protein Z peptide (sequence 16) (peptide)
peptide: LEKECYEEICVYEEA
notes: as for B1

Legend:
monoclonal antibody 3C10 = target: B4; assay: FCS competition: 2 nM Alexa488-PIVKAII (13-27) premixed with 10 nM mAb 3C10, analog peptide added, overnight; D of the tracer; negative control 47±4 (no displacement), positive control 174±10
[1] = target: T1, Alexa-488 labeled PIVKAII Gla domain …; assay: fluorescence quenching titration (FRET): 0.05 nM Alexa488 PIVKAII peptide (13-27), BHQ-labelled mAb 3C10 varied, quenching against free antibody binding sites, simple binding model

Row | Binder | Apparent Diffusion Coefficient (D) (monoclonal antibody 3C10) [um^2/sec] | Kd [1] [nM]
1 | B1 | 53 | 
2 | B2 | 49 | 
3 | B3 | 50 | 
4 | B4 |  | 0.1
5 | B5 | 52 | 
6 | B6 | 48 | 
7 | B7 | 51 | 
